Test results from article PMC3030633 (Journal of molecular biology, 2010).
No end group written: not given here. fluorescein = fluorescein label on the C-terminus of the peptide; Me3 = trimethyl-lysine

B1: H3(1-15)K4me3 peptide, C-terminal fluoresceinated (peptide, UniProt P68431 2-16, looked up)
peptide: ARTK(Me3)QTARKSTGGKA-fluorescein

Columns and labels:
[1] = target: the histone peptide containing H3K4me3; assay: ITC + fluorescence polarisation
[2] = target: PHF2 (1-451), containing both the PHD and Jumonji domains (human, UniProt O75151 1-451); assay: fluorescence polarisation
Sequence of PHF2 (1-451), containing both the PHD and Jumonji domains (human, UniProt O75151 1-451) (O75151 1-451): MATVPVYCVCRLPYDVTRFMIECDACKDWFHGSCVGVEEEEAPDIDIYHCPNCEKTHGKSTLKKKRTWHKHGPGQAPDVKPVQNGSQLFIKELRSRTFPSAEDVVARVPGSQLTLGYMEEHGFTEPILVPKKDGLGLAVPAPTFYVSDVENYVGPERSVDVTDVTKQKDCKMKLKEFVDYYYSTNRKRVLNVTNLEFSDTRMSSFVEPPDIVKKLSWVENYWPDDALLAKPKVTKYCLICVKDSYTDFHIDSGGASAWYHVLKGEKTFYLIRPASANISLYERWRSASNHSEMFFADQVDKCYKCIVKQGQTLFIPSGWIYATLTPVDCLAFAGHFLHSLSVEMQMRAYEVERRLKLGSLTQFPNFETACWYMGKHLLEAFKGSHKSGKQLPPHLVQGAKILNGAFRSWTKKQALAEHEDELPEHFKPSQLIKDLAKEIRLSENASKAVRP

Molecule	Kd [1] [nM]	binding result [2]
PHF2 (1-451), containing both the PHD and Jumonji domains (from UniProt O75151 1-451) (domain or fragment)	230 to 270	
B1		binds
